B1: SPDEF (parent)
chain: YPEDSSWAAKAPGASSREEPPEEP
B2: WEE1 (parent)
chain: INPFTPDSLLLHSSGQCRRRKRTY

Variants of: B1
Assay: protein stability index of a GFP-peptide fusion (GPS, HEK-293T) (PSI 1-6); higher = more stable
Details: c terminus: a fixed tail appended
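Further: lentivirally expressed fusions sorted by FACS into six bins by GFP to DsRed ratio, PSI derived from sequencing read proportions per bin multiplied by bin number.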

In order of falling protein stability index:
1. W7D  6
2. W7T  5.98
3. Y1D  5.97
4. W7R  5.96
5. W7H  5.95
6. Y1M  5.93
7. W7N  5.91
8. W7E  5.88
9. W7F  5.86
10. W7A  5.85
11. W7S  5.79
12. Y1L  5.79
13. P2N  5.78
14. Y1V  5.76
15. P2D  5.73
16. Y1K  5.73
17. S5E  5.72
18. Y1H  5.7
19. W7L  5.68
20. Y1T  5.68
21. P2F  5.57
22. Y1N  5.56
23. Y1S  5.55
24. W7V  5.52
25. P2R  5.43
26. W7P  5.38
27. P2M  5.18
28. P2K  5.1
29. Y1C  5.04
30. S6E  5.03
31. E3I  4.92
32. S6N  4.9
33. S5V  4.71
34. S5A  4.69
35. E3L  4.69
36. P2W  4.68
37. S5M  4.58
38. S6T  4.57
39. S5T  4.55
40. S5K  4.49
41. W7M  4.42
42. S6H  4.38
43. S5R  4.26
44. E3D  4.24
45. S5N  4.16
46. E3V  4.09
47. S5P  4.06
48. S5Q  4.03
49. S5H  3.99
50. S5W  3.99
51. E3K  3.9
52. P2G  3.9
53. S5F  3.86
54. S6Y  3.85
55. E3T  3.82
56. E3R  3.78
57. S6A  3.6
58. D4I  3.25
59. S5C  3.24
60. E3Q  3.24
61. E3P  3.15
62. D4Q  3.09
63. E3H  3.05
64. Y1F  3.03
65. E3F  2.99
66. P2T  2.95
67. S6V  2.94
68. E3G  2.72
69. E3S  2.66
70. P2I  2.53
71. S6I  2.51
72. E3M  2.49
73. E3N  2.49
74. D4N  2.4
75. D4T  2.39
76. E3Y  2.37
77. P2H  2.25
78. E3W  2.18
79. D4P  2.09
80. E3A  2.01
81. P2C  1.94
82. S6F  1.84
83. P2A  1.79
84. S6W  1.27

Variants of: B2
Assay: as above
Details: c terminus: a fixed tail appended

In order of falling protein stability index:
1. L11P  4.55
2. Y24R  4.52
3. F4E  4.48
4. Y24S  4.45
5. L11E  4.42
6. C17Q  4.4
7. F4T  4.38
8. C17P  4.37
9. I1P  4.36
10. Y24A  4.33
11. S14E  4.31
12. T23K  4.29
13. L9G  4.28
14. L9D  4.2
15. F4S  4.18
16. N2D  4.16
17. G15R  4.12
18. C17K  4.12
19. T23D  4.11
20. F4A  4.11
21. C17E  4.09
22. F4N  4.08
23. I1A  4.07
24. L10P  4.07
25. H12E  4.06
26. F4G  4.05
27. I1D  4.03
28. C17T  4.03
29. Q16N  4.03
30. I1R  4.02
31. L10H  4.01
32. S13E  4.01
33. C17L  4
34. C17S  4
35. S8D  4
36. D7W  3.99
37. F4D  3.99
38. L11I  3.97
39. L9P  3.96
40. L10A  3.96
41. Y24V  3.95
42. Q16R  3.95
43. T23S  3.93
44. T5A  3.93
45. L11N  3.92
46. R22N  3.91
47. L10S  3.88
48. R19I  3.88
49. P6D  3.87
50. I1T  3.87
51. T23G  3.87
52. C17N  3.85
53. L10N  3.85
54. L9N  3.83
55. L10G  3.83
56. R18V  3.83
57. Y24P  3.81
58. T5Q  3.78
59. R18D  3.78
60. F4R  3.77
61. L11A  3.76
62. Y24N  3.75
63. Y24H  3.75
64. S8N  3.75
65. L9R  3.74
66. S8Q  3.73
67. G15Q  3.72
68. P6E  3.71
69. G15A  3.71
70. T5V  3.71
71. C17G  3.69
72. S13K  3.69
73. L10C  3.68
74. L9T  3.67
75. F4C  3.67
76. I1K  3.62
77. R20H  3.62
78. P6S  3.61
79. H12A  3.61
80. D7E  3.6
81. I1E  3.6
82. T23M  3.6
83. H12I  3.6
84. N2T  3.59
85. H12R  3.59
86. R18Y  3.58
87. N2Q  3.57
88. G15L  3.56
89. Q16I  3.56
90. R22G  3.55
91. I1V  3.55
92. L11T  3.54
93. S14P  3.54
94. D7Q  3.52
95. I1S  3.52
96. R19D  3.52
97. Q16Y  3.52
98. P3S  3.51
99. R22H  3.5
100. T23L  3.5
101. Q16G  3.5
102. N2G  3.48
103. L11H  3.47
104. R18A  3.46
105. R22T  3.45
106. T5K  3.45
107. H12T  3.45
108. S13Q  3.44
109. P3E  3.44
110. L10W  3.43
111. T23Q  3.42
112. S8A  3.42
113. L10F  3.42
114. T5R  3.41
115. P3C  3.41
116. R18S  3.41
117. Q16T  3.41
118. G15D  3.39
119. D7R  3.39
120. R18H  3.39
121. L11R  3.38
122. K21H  3.38
123. T23Y  3.38
124. L10M  3.38
125. R19N  3.38
126. L9C  3.35
127. S8K  3.35
128. P3Q  3.35
129. R19G  3.34
130. I1M  3.33
131. T5H  3.33
132. H12M  3.32
133. R19K  3.32
134. R22S  3.31
135. D7K  3.31
136. D7Y  3.27
137. R19Q  3.27
138. L9I  3.25
139. T5N  3.24
140. T5S  3.23
141. G15T  3.21
142. P3A  3.21
143. P6T  3.2
144. L10K  3.2
145. F4L  3.2
146. N2H  3.19
147. R22Q  3.19
148. I1L  3.19
149. H12N  3.19
150. H12G  3.18
151. R22C  3.17
152. S13G  3.17
153. K21V  3.16
154. C17R  3.16
155. D7S  3.14
156. D7A  3.13
157. Y24E  3.13
158. D7M  3.12
159. Y24F  3.12
160. R20P  3.12
161. R18N  3.12
162. P3K  3.1
163. N2M  3.08
164. R20A  3.08
165. R19A  3.08
166. T23V  3.06
167. Q16H  3.06
168. I1Y  3.05
169. L11V  3.04
170. Y24L  3.04
171. H12F  3.03
172. R19P  3.03
173. P6R  3.02
174. Y24I  3.01
175. K21I  3
176. L11W  2.99
177. P3M  2.99
178. S14K  2.98
179. Q16V  2.97
180. T5P  2.95
181. R20I  2.95
182. L9F  2.94
183. R20V  2.94
184. H12Q  2.94
185. R18C  2.94
186. R22L  2.92
187. G15I  2.92
188. G15Y  2.9
189. T5M  2.89
190. L10Y  2.89
191. H12Y  2.89
192. R20M  2.85
193. S13I  2.85
194. G15M  2.84
195. S13M  2.84
196. N2K  2.83
197. K21T  2.83
198. S8L  2.82
199. S14G  2.82
200. R18M  2.81
201. T23I  2.78
202. R19T  2.78
203. S8P  2.77
204. S8M  2.75
205. R20L  2.75
206. I1F  2.73
207. S8C  2.73
208. G15H  2.72
209. R22F  2.71
210. D7H  2.69
211. P3I  2.69
212. S13L  2.64
213. D7V  2.63
214. L9Y  2.63
215. S14V  2.62
216. R19F  2.62
217. R20Y  2.61
218. S13V  2.61
219. P3L  2.61
220. S8I  2.6
221. P6Y  2.56
222. D7I  2.55
223. S13W  2.54
224. T5W  2.51
225. S14F  2.51
226. Q16W  2.51
227. S8F  2.5
228. R20C  2.5
229. K21Y  2.48
230. T5I  2.48
231. K21Q  2.46
232. D7C  2.46
233. K21F  2.42
234. D7N  2.41
235. S14C  2.41
236. N2W  2.39
237. N2I  2.36
238. S14Y  2.36
239. N2F  2.35
240. S14L  2.35
241. P3F  2.33
242. G15C  2.26
243. D7G  2.24
244. P6W  2.21
245. S13C  2.21
246. H12W  2.19
247. D7F  2.12
248. P6L  2.06
249. R20W  1.82
250. P3W  1.3
